Experiment [1] concerns the target MenDRD (MenD-RIDD with one RIDD peptide tag) (E. coli | not stated). Kind of experiment: SEC; 1.5 mg of enzyme fused with RIAD mixed with two-fold molar excess of enzyme fused with RIDD in Tris buffer pH 7.8, 1 mM EDTA, 0.02% Tween-20, no incubation; Superdex 200 10/300 GL, 0.4 mL/min, Tris pH 7.8, 50 mM NaCl; masses from a calibration curve.
The target of experiment [2] is MenDRA2 (MenD-RIAD-RIAD with two sequential RIAD peptide tags) (E. coli). The experiment can be described thus: transmission electron microscopy; TEM of the SEC-purified Assemblies A, B and C; two-dimensional single-particle analysis on Assembly B.
For experiment [3], the target named is MenDRA (MenD-RIAD with one RIAD peptide tag) (E. coli). The experiment is described as above.
Experiment [4] deals with MenDRD (MenD-RIDD with one RIDD peptide tag) (E. coli | not stated). The experiment is described as above.
The target of experiment [5] is CrtERD-YFP (geranylgeranyl diphosphate synthase, CrtE-RIDD, fused with yellow fluorescent protein) (UniProt P10644). Kind of experiment: FRET or BRET; lifetime-based FRET (two-photon FLIM) in living E. coli cells; CFP donor excited at 810 nm, signal collected at 481 nm; strain Car2f against control strain Car1f.

As to “MenHRA (MenH-RIAD with one RIAD peptide tag) (enzyme)”, the stoichiometry N (MenH per 4 MenD (per particle)) in experiment [1] stood at 2.

The substance “MenDRA2 (MenD-RIAD-RIAD with two sequential RIAD peptide tags) (enzyme)” gave a stoichiometry N in experiment [2] of 4.

In experiment [3], “MenDRA (MenD-RIAD with one RIAD peptide tag) (enzyme)” gave a stoichiometry N of 4.

Turning to “MenDRD (MenD-RIDD with one RIDD peptide tag) (from UniProt P10644 1-44) (enzyme)”, the stoichiometry N in experiment [4] amounted to 4.

For the substance “IdiRA-CFP (isopentenyl diphosphate isomerase, Idi-RIAD, fused with cyan fluorescent protein) (enzyme)”, the FRET efficiency E in experiment [5] worked out at 29%.

The values are drawn from PMC6751169.
